Patent US20120100139A1 (APTEVO RESEARCH AND DEVELOPMENT, published 2012)
One block for each molecule: values may come before it.

Columns and labels:
CD86-mIgG (Ancell, Inc) [1] = biological target: CD86-mIgG (Ancell, Inc) (UniProt P42081); assay: SPR (BIAcore T100), CD86-mIgG immobilized on CM5; first site
CD86-mIgG (Ancell, Inc) [2] = biological target: CD86-mIgG (Ancell, Inc) (UniProt P42081); assay: SPR (BIAcore T100), CD86-mIgG immobilized on CM5; second site
CD86-mIgG (Ancell, Inc) [3] = biological target: CD86-mIgG (Ancell, Inc) (UniProt P42081); assay: SPR (BIAcore T100), CD86-mIgG immobilized on CM5; steady-state equilibrium fit
[4] = biological target: T1, PD1 ectodomain fused to a C-terminal AviTag, biotinylated (biotinylated on the AviTag with the BirA enzyme); assay: SPR (BIAcore T100), biotinylated PD1 captured on neutravidin; steady-state equilibrium fit
T1 construct: also called biotinylated PD1
T1 chain: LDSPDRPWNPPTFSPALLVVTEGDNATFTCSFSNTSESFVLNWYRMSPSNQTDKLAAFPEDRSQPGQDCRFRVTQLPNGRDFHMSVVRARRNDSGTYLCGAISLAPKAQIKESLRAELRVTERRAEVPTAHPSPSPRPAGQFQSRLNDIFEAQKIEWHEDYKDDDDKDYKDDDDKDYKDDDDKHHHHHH
Protocol: (§1) SPR measurements were performed on a BIAcore™ T100 SPR (Pharmacia Biotech AB, Uppsala) using HBS-P+ (GE Healthcare) as a running buffer. […] PDL1/2-containing constructs were injected for 120 seconds, at a flow rate of 30 μl/min, in a series of concentrations from 6 nM to 2 μM. Dissociation was monitored for 1200 seconds, and the surface was regenerated by injecting 50 mM NaOH, 1M NaCl for 30 seconds.
(§2) Data were analyzed using BiaEvaluation for the T100 software (version 2.0.1, GE Healthcare).

[5] = biological target: T1, PD1 ectodomain fused to a C-terminal …; assay: SPR (BIAcore T100), biotinylated PD1 captured on neutravidin; bivalent analyte model, first site
Protocol: as §1, §2

[6] = biological target: T2, Murine CD86-mIgG (R&D Systems, Inc) (murine, UniProt P42082 24-244, limits assumed); assay: SPR (BIAcore T100), murine CD86-mIgG immobilized on CM5; bivalent analyte model, second site
T2 construct: also called muCD86
T2 sequence (looked up): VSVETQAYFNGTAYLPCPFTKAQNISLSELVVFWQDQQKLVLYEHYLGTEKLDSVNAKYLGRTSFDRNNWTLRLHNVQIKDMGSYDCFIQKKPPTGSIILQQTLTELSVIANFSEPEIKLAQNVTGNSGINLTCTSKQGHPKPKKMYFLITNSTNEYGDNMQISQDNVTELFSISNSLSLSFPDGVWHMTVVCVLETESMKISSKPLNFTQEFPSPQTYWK
Protocol: (§3) SPR measurements were performed on a BIAcore™ T100 SPR (Pharmacia Biotech AB, Uppsala) using HBS-EP+ (GE Healthcare) as a running buffer. Murine CD86-mIgG (25 μg/mL in 10 mM sodium acetate, pH 4.0, R&D Systems, Inc) was directly immobilized onto a CM5 chip using standard amine coupling chemistry (Biacore Amine Coupling Kit, GE Healthcare), with final immobilization levels of 150, 493, and 746 Ru. CTLA4-containing constructs were injected for 150 seconds, at a flow rate of 10 μl/min, in a series of concentrations from 4 nM to 8 μM. Dissociation was monitored for 600 seconds (CTLA4 constructs) or 1200 seconds (GL1 constructs), and the surface was regenerated by injecting 10 mM glycine, pH 1.7, for 60 seconds. […] Data were analyzed using BiaEvaluation for the T100 software (version 2.0.1, GE Healthcare).

[7] = biological target: T3, CD80-mIg (Ancell Catalog #510-020) (UniProt P33681 35-242); assay: SPR (BIAcore T100), CD80-mIgG immobilized on CM5; steady-state equilibrium fit
T3 construct: Bought reagent; also called CD80-mIgG; sCD80
T3 sequence (looked up): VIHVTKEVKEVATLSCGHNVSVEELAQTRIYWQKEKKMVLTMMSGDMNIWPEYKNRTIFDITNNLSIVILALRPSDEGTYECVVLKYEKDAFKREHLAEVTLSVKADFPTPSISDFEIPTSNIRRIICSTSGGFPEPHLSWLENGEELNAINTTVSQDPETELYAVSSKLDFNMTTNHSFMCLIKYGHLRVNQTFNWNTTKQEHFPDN
Protocol: (§4) Surface plasmon resonance (SPR) measurements were performed on a BIAcore™ T100 SPR (Pharmacia Biotech AB, Uppsala) using HBS-EP+ (GE Healthcare) as a running buffer. […] CTLA4-containing constructs were injected for 150 seconds, at a flow rate of 10 μl/min, in a series of concentrations from 5 nM to 1 μM. Dissociation was monitored for 600 seconds, and the surface was regenerated by injecting 50 mM sodium citrate, 500 mM sodium chloride, pH 4.0, for 60 seconds. […] Data were analyzed using BiaEvaluation for the T100 software (version 2.0.1, GE Healthcare).

CD86-mIgG (Ancell, Inc) [8] = biological target: T4, CD86-mIgG (Ancell, Inc) (UniProt P42081 24-247, limits assumed); assay: SPR (BIAcore T100), CD86-mIgG immobilized on CM5; bivalent analyte model, first site
T4 construct: Bought reagent
T4 sequence (looked up): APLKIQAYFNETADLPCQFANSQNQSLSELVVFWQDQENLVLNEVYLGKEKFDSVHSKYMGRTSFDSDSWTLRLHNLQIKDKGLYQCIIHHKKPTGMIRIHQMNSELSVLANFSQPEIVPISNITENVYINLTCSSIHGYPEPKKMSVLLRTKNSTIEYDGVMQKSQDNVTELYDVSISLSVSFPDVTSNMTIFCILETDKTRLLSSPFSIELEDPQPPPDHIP
Protocol: SPR measurements were performed on a BIAcore™ T100 SPR (Pharmacia Biotech AB, Uppsala) using HBS-EP+ (GE Healthcare) as a running buffer. […] CTLA4-containing constructs were injected for 150 seconds, at a flow rate of 10 μl/min, in a series of concentrations from 4 nM to 10 μM. Dissociation was monitored for 600 seconds, and the surface was either regenerated by injecting 50 mM sodium citrate, 500 mM sodium chloride, pH 5.0, for 60 seconds (wild type CTLA4) or 10 mM glycine, pH 1.7 (L104E A29Y CTLA4). […] Data were analyzed using BiaEvaluation for the T100 software (version 2.0.1, GE Healthcare).

[9] = biological target: T3, CD80-mIg (Ancell Catalog #510-020); assay: SPR (BIAcore T100), CD80-mIgG immobilized on CM5; bivalent analyte model, second site
Protocol: as §4

[10] = biological target: T3, CD80-mIg (Ancell Catalog #510-020); assay: SPR (BIAcore T100), CD80-mIgG immobilized on CM5; bivalent analyte model, first site
Protocol: as §4

CD86-mIgG (Ancell, Inc) [11] = biological target: T4, CD86-mIgG (Ancell, Inc); assay: SPR (BIAcore T100), CD86-mIgG immobilized on CM5; steady-state equilibrium fit
[12] = biological target: T2, Murine CD86-mIgG (R&D Systems, Inc); assay: SPR (BIAcore T100), murine CD86-mIgG immobilized on CM5; steady-state equilibrium, multiple Rmax fit
Protocol: as §3

[13] = biological target: T2, Murine CD86-mIgG (R&D Systems, Inc); assay: SPR (BIAcore T100), murine CD86-mIgG immobilized on CM5; bivalent analyte model, first site
Protocol: as §3

koff (CD86-mIgG (Ancell, Inc) [1]): 0.00018 s⁻¹
kon (CD86-mIgG (Ancell, Inc) [1]): 94100 M⁻¹ s⁻¹
Second Site ka (CD86-mIgG (Ancell, Inc) [2]): 0.0203 s⁻¹
Second Site kd (CD86-mIgG (Ancell, Inc) [2]): 0.0722 s⁻¹
Kd (CD86-mIgG (Ancell, Inc) [3]): 50.6 nM
Molecule: muIL 10-Ig

Kd [4]: 42 nM
koff [5]: 0.00724 s⁻¹
kon [5]: 165000 M⁻¹ s⁻¹
B1: PDL2-Fc (Fc fusion)
chain: LFTVTVPKELYIIEHGSNVTLECNFDTGSHVNLGAITASLQKVENDTSPHRERATLLEEQLPLGKASFHIPQVQVRDEGQYQCIIIYGVAWDYKYLTLKVKASYRKINTHILKVPETDEVELTCQATGYPLAEVSWPNVSVPANTSHSRTPEGLYQVTSVLRLKPPPGRNFSCVFWNTHVRELTLASIDLQSQMEPRTHPTLEPKSSDKTHTCPPCPAPEAAGAPSVFLFPPKPKDTLMISRTPEVTCVVVDVSHEDPEVKFNWYVDGVEVHNAKTKPREEQYNSTYRVVSVLTVLHQDWLNGKAYACAVSNKALPAPIEKTISKAKGQPREPQVYTLPPSRDELTKNQVSLTCLVKGFYPSDIAVEWESNGQPENNYKTTPPVLDSDGSFFLYSKLTVDKSRWQQGNVFSCSVMHEALHNHYTQKSLSLSPG

Second Site ka [6]: 0.00026 s⁻¹
Second Site kd [6]: 0.00193 s⁻¹
Kd [7]: 19.1 nM
koff (CD86-mIgG (Ancell, Inc) [8]): 0.0091 s⁻¹
kon (CD86-mIgG (Ancell, Inc) [8]): 45100 M⁻¹ s⁻¹
Second Site ka [9]: 0.00406 s⁻¹
Second Site kd [9]: 0.00706 s⁻¹
koff [10]: 0.00235 s⁻¹
kon [10]: 90800 M⁻¹ s⁻¹
Kd (CD86-mIgG (Ancell, Inc) [11]): 670 nM
Kd [12]: 870 nM
koff [13]: 0.0418 s⁻¹
kon [13]: 32100 M⁻¹ s⁻¹
B2: xceptor including a CTLA4 ectodomain with the L104E A29Y mutations and an IL10 domain (Fc fusion)
chain: MHVAQPAVVLASSRGIASFVCEYASPGKYTEVRVTVLRQADSQVTEVCAATYMMGNELTFLDDSICTGTSSGNQVNLTIQGLRAMDTGLYICKVELMYPPPYYEGIGNGTQIYVIDPEPCPDSDLEPKSSDKTHTCPPCPAPEAAGAPSVFLFPPKPKDTLMISRTPEVTCVVVDVSHEDPEVKFNWYVDGVEVHNAKTKPREEQYNSTYRVVSVLTVLHQDWLNGKAYACAVSNKALPAPIEKTISKAKGQPREPQVYTLPPSRDELTKNQVSLTCLVKGFYPSDIAVEWESNGQPENNYKTTPPVLDSDGSFFLYSKLTVDKSRWQQGNVFSCSVMHEALHNHYTQKSLSLSPGQRHNNSSLNTGTQMAGHSPNSSPGQGTQSENSCTHFPGNLPNMLRDLRDAFSRVKTFFQMKDQLDNLLLKESLLEDFKGYLGCQALSEMIQFYLEEVMPQAENQDPDAKAHVNSLGENLKTLRLRLRRCHRFLPCENKSKAVEQVKNAFNKLQEKGIYKAMSEFDIFINYIEAYMTMKIRN
notes: the mutations are in the entry
